Experimental data reported in US20110287023A1 (AstraZeneca / MedImmune, published 2011).

T1: HMG2 coated on ELISA plates (Bos taurus (Bovine), UniProt P40673 2-209)
T1 construct: also called HMGB2; HMBG2
T1 sequence: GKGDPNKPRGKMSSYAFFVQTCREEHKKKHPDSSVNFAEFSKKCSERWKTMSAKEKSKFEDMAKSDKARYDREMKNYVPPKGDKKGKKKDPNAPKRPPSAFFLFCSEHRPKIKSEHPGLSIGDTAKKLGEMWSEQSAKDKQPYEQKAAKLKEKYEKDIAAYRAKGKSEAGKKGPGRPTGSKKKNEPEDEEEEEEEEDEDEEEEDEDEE

T2: HMG1 B Box peptide amino acids 150-183
T2 peptide: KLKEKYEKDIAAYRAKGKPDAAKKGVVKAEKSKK

T3: HMG1 B Box peptide amino acids 91-169
T3 construct: also called HMG1 peptide 91-169
T3 peptide: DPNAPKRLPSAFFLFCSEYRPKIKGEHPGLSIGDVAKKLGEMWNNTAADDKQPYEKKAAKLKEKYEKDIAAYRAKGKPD

T4: HMG1 purified from calf (bovine) thymus (bovine, UniProt P10103 2-215)
T4 construct: also called Calf thymus HMGB1; thymus HMG1
T4 sequence (looked up): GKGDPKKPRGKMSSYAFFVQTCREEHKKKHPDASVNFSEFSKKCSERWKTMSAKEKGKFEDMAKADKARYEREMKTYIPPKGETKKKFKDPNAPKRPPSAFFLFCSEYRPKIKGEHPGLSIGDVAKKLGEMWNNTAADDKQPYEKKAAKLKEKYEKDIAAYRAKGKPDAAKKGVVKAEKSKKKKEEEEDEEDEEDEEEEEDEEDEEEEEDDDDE

B1: human anti-HMG1 antibody G34 (antibody, IgG1, V domains shown)
VH: EVQLLESGGGLVQPGGSLRLSCAASGFTFSHYMMGWVRQAPGKGLEWVSRISPSGGGTVYADSVKGRFTISRDNSKNTLYLQMNSLRAEDTAVYYCARGGNWNYISYYYYYLDVWGKGTTVTVSS
VL: DIQMTQSPSSLSASVGDRVAITCRASQSIDTYLNWYQQKPGKAPKLLIYAASKLEDGVPSRFSGSGTGTDFTLTIRSLQPEDFASYFCQQSYSSPGITFGPGTKVEIK
notes: full length IgG1 made from a human Fab phage clone
B2: human anti-HMG1 antibody G20 (antibody, IgG1, V domains shown)
VH: EVQLLESGGGLVQPGGSLRLSCAASGFTFSWYDMFWVRQAPGKGLEWVSWISPSGGYTKYADSVKGRFTISRDNSKNTLYLQMNSLRAEDTAMYYCARSGLDYYDSSGYLDAFDIWGQGTMVTVSS
VL: DIQMTQSPSSVSASVGDRVTITCRASQDVSIWLAWYQQKPGKAPKLLIFGASRLQSGVPSRFSGSRSGADFTLTIDSVQPEDFASYYCQQADSFPLTFGGGTKVEIK
notes: as for B1
B3: human anti-HMG1 antibody S14 (antibody, IgG1, V domains shown)
VH: EVQLLESGGGLVQPGGSLRLSCAASGFTFSWYETGWVRQAPGKGLEWVSGISPSGGYTQYADSVKGRFTISRDNSKNTLYLQMNSLRAEDTAVYYCARSGVGATKIFDYWGQGTLVTVSS
VL: DIQMTQSPSSLSASVGDRVTIICRANERINTYLNWYQQKPGKAPKLLISGTSSLESGVPSRFSGSGSGTEFTLSISSLQPEDFASYYCQQSYSSPYTFGQGTNLEIR
notes: as for B1
B4: human anti-HMG1 antibody G9 (antibody, IgG1, V domains shown)
VH: EVQLLESGGGLVQPGGSLRLSCAASGFTFSSYDMFWVRQAPGKGLEWVSRISPSGGYTYYADSVKGRFTISRDNSKNTLYLQMNSLRAEDTAVYYCARLRYFDSRGYAFDIWGQGTMVTVSS
VL: DIQMTQSPGTLSLSPGERATLSCRASQSVRSSYLAWYQQKPGQAPRLLIYGASTRATGIPDRFSGSGSGTDFTLTISRLEPEDFAVYYCQQYGTSRWTFGQGTKVEIK
notes: as for B1
B5: human anti-HMG1 antibody G12 (antibody, IgG1, V domains shown)
VH: EVQLLESGGGLVQPGGSLRLSCAASGFTFSYYMMTWVRQAPGKGLEWVSSISPSGGYTIYADSAKGRFTISRDNSKNTLYLQMNSLRAEDTAVYYCARALSTGSFWDYWGQGTLVTVSS
VL: DIQMTQSPGTLSLSPGERATLSCRASESLTSTYVAWYQHKPGQAPRLLIHGGSTRATGIPVRFSGSGSGTDFTLTIATLEPEDFAVYYCQQYGSSPYTFGQGTKLEIK
notes: as for B1
B6: human anti-HMG1 antibody S10 (antibody, IgG1, V domains shown)
VH: EVQLLESGGGLVQPGGSLRLSCAASGFTFSWYDMWWVRQAPGKGLEWVSWIVPSGGITAYADSVKGRFTISRDNSKNTLYLQMNSLRAEDTATYYCARGNYGPSPFDYWGQGTLVTVSS
VL: DIQMTQSPGTLSLSPGERATLSCRATQSVRKNFLAWYQQKPGQAPRLLIYDASSRATGIPDRFSGSGSGTDFTLTISRLEPEDFAVYYCQQYGNSPIIFGQGTRLEIK
notes: as for B1
B7: human anti-HMG1 antibody G35 (antibody, IgG1, V domains shown)
VH: EVQLLESGGGLVQPGGSLRLSCAASGFTFSWYKMVWVRQAPGKGLEWVSSIVPSGGITIYADSVKGRFTISRDNSKNTLYLQMNSLRAEDTAVYYCARVQQWLGRPYFDYWGQGTLVTVSS
VL: DIQMTQSPLSLPVTPGEPASISCRSSQSLLHGNGYNYLDWYLQRPGQSPQLLIYSGSNRASGVPDRFSGSGSGTDFTLKISRVEAEDVGVYYCMQSLQSRTFGQGTKVEIK
notes: as for B1

Tests used:
[1] = molecular target: T1, HMG2 coated on ELISA plates; assay: direct ELISA, HMGB2 coated at 5 ug/mL, OD 490
Protocol: (§1) Binding to HMG1 vs. HMG2: Ultra high-binding ELISA plates (ThermoLab systems, #3855) were coated with either 5 ug/mL of Calf thymus HMGB1 or HMBG2 diluted in 10 mM Phosphate buffered saline (PBS), pH 7.2 and incubate overnight at 4 degrees. The plates were washed twice with Ca and Mg free PBS and 100 microliters of anti-HMGB1 antibody diluted in 10 mM PBS, pH 7.2+1% bovine serum albumin (BSA) to a final concentration of 10 ug/mL was added to each well and the plates were incubated 1 hour at room temperature. The wells were washed three times with 100 μl of PBS, pH 7.2. HRP labeled goat-anti-human IgG Kappa-chain (KPL, #14-10-10) and goat-anti-human IgG Lambda-chain (KPL, #14-10-11) were diluted in 10 mM PBS+1% BSA 1:1000 and 100 μl were added to each well and incubated for 1 hour at room temperature. The wells were then washed three times with 100 μl of PBS, pH 7.2. OPD substrate (Pierce chemical company, #34006) was prepared following the manufacturers instructions and 100 μl of prepared substrate was added to each well and the plates incubated at room temperature in the dark for 20-30 minutes. The reaction was stopped with the addition of 100 μl of 2M H₂SO₄, and the plates read on a plate reader at a wavelength of 490 nm.

[2] = molecular target: T5, recombinant HMG1 produced in E. coli as a calmodulin binding protein (CBP) fusion (human); assay: cell-based or functional assay
T5 sequence (P09429 whole entry, the tested form may be a part): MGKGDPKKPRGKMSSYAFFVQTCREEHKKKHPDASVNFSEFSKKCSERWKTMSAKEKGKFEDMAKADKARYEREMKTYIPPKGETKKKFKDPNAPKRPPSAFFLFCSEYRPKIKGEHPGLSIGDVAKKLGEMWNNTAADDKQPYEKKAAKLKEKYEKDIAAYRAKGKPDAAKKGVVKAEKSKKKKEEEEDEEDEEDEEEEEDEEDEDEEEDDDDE

[3] = molecular target: T2, HMG1 B Box peptide amino acids 150-183; assay: ELISA, HMG1 B Box peptide 150-183 coated at 10 ug/ml, antibody titrated, OD 450
Protocol: (§2) The plate was then blocked with 4% milk powder dissolved in PBS at 37° C. for 1 hour. The blocking solution was removed and replaced with human anti-HMG1 antibodies at various concentrations (see FIGS. 5A-B). […] HRP activity was detected with Sureblue HRP substrate (KPL). Plates were read at 450 nm using a Kinetic Microplate Reader (Molecular Devices). […] After washing and blocking with 1% BSA in PBS, the biotinylated peptides were individually added into the avidin coated wells and incubated for 30 min at room temperature. The serial diluted antibody G4, S16 and S6 at the initial concentration at 10 μg/ml were then transferred into the wells followed by adding mouse anti human IgG-HRP conjugate (Pierce). Detection was accomplished by adding 50 μl of tetramethylbenzidine (TMB) substrate (KPL) and the absorbance was read at 450 nm.

[4] = molecular target: T3, HMG1 B Box peptide amino acids 91-169; assay: ELISA, HMG1 B Box peptide 91-169 coated at 10 ug/ml, antibody titrated, OD 450
Protocol: as §2

[5] = molecular target: T4, HMG1 purified from calf (bovine) thymus; assay: direct ELISA, calf thymus HMGB1 coated at 5 ug/mL, antibody at 10 ug/mL, anti-human kappa/lambda-HRP, OD 490
Protocol: as §1

[6] = molecular target: T5, recombinant HMG1 produced in E. coli as …; assay: BIAcore 3000, mAb amine-coupled to CM5, HMG1 injected, steady-state model
Protocol: HMG1 Binding Affinity via BIAcore Analysis: All experiments were performed on a BIAcore 3000 instrument (BIAcore, Inc., Piscataway, N.J.). Briefly, each mAb was immobilized to a CM5 sensor chip using a standard amine coupling chemistry. Separately a reference (control) flow cell was also prepared. Two-fold, serial dilutions of HMG1 in instrument buffer were sequentially injected at a slow flow rate over the individual mAb and reference flow-cell surfaces. Following the binding and dissociation of HMG1, the mAbs surfaces were regenerated with a brief pulse of 1M NaCl-50 mM NaOH. At the end of each experiment, the binding curves were evaluated using a steady-state model available through the BIAevaluation software supplied by BIAcore, Inc. (Piscataway, N.J.).

[7] = molecular target: T5, recombinant HMG1 produced in E. coli as …; assay: ELISA, coated RAGE-Fc, rHMG1 preincubated with antibody
Protocol: HMG1 binding to RAGE-Ig by ELISA: 50 μl/well of RAGE-Fc fusion protein at 5 μg/ml in PBS was added to each well of an ELISA plate and incubated overnight at 4° C. The plate was then blocked with 200 μl of 5% milk at 37° C. for 1 hr and washed 3× with PBS/Tween. 50 μl/well of diluted HMGB1 solution. For dose curves, HMGB1 concentrations started at 4 ug/ml in PBS. For antibody blocking the HMGB1 was preincubated in another plate with human anti-HMG1 antibodies or buffer, then transferred to the RAGE-coated plate. The plates were then incubated at room temperature for 2 hours and washed 3×. To detect any HMG1 bound to the immobilized RAGE-Fc a mixture of biotinylated mouse anti-HMG1 mAbs (10D4, 4H11, 3E10 and 5C12) each at 1 ug/ml, total Ab: 4 ug/ml, were added to each well and the plate was incubated for 1 hour at room temperature. The plate was then washed and Strepavidin-HPR was added to each well and incubated 15 min. The plate was then washed 3× and blotted dry. 100 μl of TMB developing agent was added and the plate read at 650 nm. Values were calculated as percent of inhibition with HMG1 alone equal to 0% inhibition. The data in FIG. 9 and summarized in Table 1 represent the average of two separate experiments.

Binder	binding result [1]	IC50 IL-6 [2] [µM]	binding result [3]	binding result [4]	binding result [5]	Kd [6] [µM]	IC50 IL-1β [2] [mg/L]	IC50 NO [2] [mg/L]	IC50 TNF-α [2] [mg/L]	IC50 IL-12 [2] [mg/L]	percent inhibition of HMG1 binding to RAGE [7] [%]
B1	no binding (tested: 10 ug/mL (single concentration))	0.000858	no binding (tested: 10 ug/ml (log 1.0))	no binding (tested: 10 ug/ml (log 1.0))	binds	0.067	–	–	–	–	–
B2	no binding (tested: 10 ug/mL (single concentration))	0.000652	no binding (tested: 10 ug/ml (log 1.0))	no binding (tested: 10 ug/ml (log 1.0))	binds	0.114	0.4	20.4	0.598	–	–
B3	no binding (tested: 10 ug/mL (single concentration))	0.000191	no binding (tested: 10 ug/ml (log 1.0))	no binding (tested: 10 ug/ml (log 1.0))	binds	0.205	0.0578	–	0.0662	–	–
B4	no binding (tested: 10 ug/mL (single concentration))	0.000246	no binding (tested: 10 ug/ml (log 1.0))	no binding (tested: 10 ug/ml (log 1.0))	binds	0.125	0.211	–	0.248	–	–
B5	no binding (tested: 10 ug/mL (single concentration))	0.00112	no binding (tested: 10 ug/ml (log 1.0))	no binding (tested: 10 ug/ml (log 1.0))	binds	0.073	5.91	–	0.796	2.79	–
B6	no binding (tested: 10 ug/mL (single concentration))	0.000324	no binding (tested: 10 ug/ml (log 1.0))	no binding (tested: 10 ug/ml (log 1.0))	binds	0.054	2.59	–	0.875	1.13	≥ 35
B7	no binding (tested: 10 ug/mL (single concentration))	0.000563	no binding (tested: 10 ug/ml (log 1.0))	–	binds	0.242	–	–	–	–	–
